Results on 46 sequences are retold here after the supplement of paper PMC11780869.

This data set concerns Bacillus subtilis. Nature of the data set: cleaved RNA product abundance (RNA/gDNA barcode ratio) relative to median wild-type variant (ratio to wild type); higher = more accumulation of the downstream cleavage product. As to conditions: experiment (reporter, strain, medium): exp 8a: truncated aprE reporter, strain BJT201 with 2% xylose (RNase J1 expressed); cleavage site: glnRA (positions -5 to +31 mutated). Summed up:
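Sequencing of barcodes from gel-selected, reverse-transcribed cleaved RNA and from genomic DNA, with UMI collapsing, yielded a per-construct RNA:gDNA ratio. Scaled to the median construct with the unmutated site, this ratio is the cleaved product abundance. The barcoded reporters (truncated aprE or tetM mRNAs with mutagenized RNase Y cleavage-site windows) were integrated into the B. subtilis chromosome, and cultures grew in LB at 37°C from OD600 0.0003 to 0.3.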
Turning to “CGACATGTCCCGCTTCTTTCATTAATCCGTTTGCAACTATTTTGCTATATACATTTACCTTTTAAGAGGAGGAAT”, the “cleaved RNA product abundance” value turned out to be 0.859.
Next, “CGACATGTCCCGCTTCTTTCATTAATCCGTTTGCAACTCTTTTGCTATATACATTTACCTTTTAAGAGGAGGAAT”: 0.483; “CGACATGTCCCGCTTCTTTCATTAATCCGTTTGCAACTGATTTGCTATATACATTTACCTTTTAAGAGGAGGAAT”: 0.51.
For “CGACATGTCCCGCTTCTTTCATTAATCCGTTTGCAACTGTTATGCTATATACATTTACCTTTTAAGAGGAGGAAT” the value was 0.428.
For the sequence “CGACATGTCCCGCTTCTTTCATTAATCCGTTTGCAACTGTTTAGCTATATACATTTACCTTTTAAGAGGAGGAAT”, the “cleaved RNA product abundance” value was determined as 0.517.
Next, “CGACATGTCCCGCTTCTTTCATTAATCCGTTTGCAACTGTTTTACTATATACATTTACCTTTTAAGAGGAGGAAT”: 0.879.
Next, “CGACATGTCCCGCTTCTTTCATTAATCCGTTTGCAACTGTTTTGATATATACATTTACCTTTTAAGAGGAGGAAT”: 0.421; “CGACATGTCCCGCTTCTTTCATTAATCCGTTTGCAACTGTTTTGCTAAATACATTTACCTTTTAAGAGGAGGAAT”: 0.289; “CGACATGTCCCGCTTCTTTCATTAATCCGTTTGCAACTGTTTTGCTACATACATTTACCTTTTAAGAGGAGGAAT”: 0.623.
“CGACATGTCCCGCTTCTTTCATTAATCCGTTTGCAACTGTTTTGCTATACACATTTACCTTTTAAGAGGAGGAAT”: the “cleaved RNA product abundance” value stood at 0.386.
Next, “CGACATGTCCCGCTTCTTTCATTAATCCGTTTGCAACTGTTTTGCTATATACAATTACCTTTTAAGAGGAGGAAT”: 0.478; “CGACATGTCCCGCTTCTTTCATTAATCCGTTTGCAACTGTTTTGCTATATACATATACCTTTTAAGAGGAGGAAT”: 0.478.
“CGACATGTCCCGCTTCTTTCATTAATCCGTTTGCAACTGTTTTGCTATATACATTGACCTTTTAAGAGGAGGAAT”: the “cleaved RNA product abundance” value worked out at 0.837.
Next, “CGACATGTCCCGCTTCTTTCATTAATCCGTTTGCAACTGTTTTGCTATATACATTTAACTTTTAAGAGGAGGAAT”: 0.827; “CGACATGTCCCGCTTCTTTCATTAATCCGTTTGCAACTGTTTTGCTATATACATTTACATTTTAAGAGGAGGAAT”: 0.626; “CGACATGTCCCGCTTCTTTCATTAATCCGTTTGCAACTGTTTTGCTATATACATTTACCATTTAAGAGGAGGAAT”: 0.88.
As to “CGACATGTCCCGCTTCTTTCATTAATCCGTTTGCAACTGTTTTGCTATATACATTTACCTTTTAAGAGGAGGAAT”, the “cleaved RNA product abundance” value stood at 0.549.
As to “CGACATGTCCCGCTTCTTTCATTAATCCGTTTGCAACTGTTTTGCTATATACATTTACGTTTTAAGAGGAGGAAT”, the “cleaved RNA product abundance” value turned out to be 0.661.
Turning to “CGACATGTCCCGCTTCTTTCATTAATCCGTTTGCAACTGTTTTGCTATATACATTTACTTTTTAAGAGGAGGAAT”, the “cleaved RNA product abundance” value turned out to be 0.552.
For “CGACATGTCCCGCTTCTTTCATTAATCCGTTTGCAACTGTTTTGCTATCTACATTTACCTTTTAAGAGGAGGAAT” the value was 0.203; for “CGACATGTCCCGCTTCTTTCATTAATCCGTTTGCAACTGTTTTTCTATATACATTTACCTTTTAAGAGGAGGAAT”, 0.768.
In the case of “CGACATGTCCCGCTTCTTTCATTAATCCGTTTGCAATTGTTTTGCTATATACATTTACCTTTTAAGAGGAGGAAT”, the “cleaved RNA product abundance” value was determined as 0.536.
For “CGACATGTCCCGCTTCTTTCATTAATCCGTTTGCACCTGTTTTGCTATATACATTTACCTTTTAAGAGGAGGAAT” the value was 0.295.
Next, “CGACATGTCCCGCTTCTTTCATTAATCCGTTTGCATCTGTTTTGCTATATACATTTACCTTTTAAGAGGAGGAAT”: 0.274.
For “CGACATGTCCCGCTTCTTTCATTAATCCGTTTTCAACTGTTTTGCTATATACATTTACCTTTTAAGAGGAGGAAT”, the “cleaved RNA product abundance” value stood at 0.247.
For “CGACATGTCCCGCTTCTTTCATTAATCCTATAGCAACTGTTTTGCTATATACATTTACCTTTTAAGAGGAGGAAT” the value was 0.458; for “CGACATGTCCCGCTTCTTTCATTAATCCTCTAGCAACTGTTTTGCTATATACATTTACCTTTTAAGAGGAGGAAT”, 0.492; for “CGACATGTCCCGCTTCTTTCATTAATCCTTAAGCAACTGTTTTGCTATATACATTTACCTTTTAAGAGGAGGAAT”, 0.419.
For “CGACATGTCCCGCTTCTTTCATTAATCCTTAGCACCTGTTTTGCTATATACATTATCCTTTTAAGAGGAGGAATT” the value was 0.144.
Next, “CGACATGTCCCGCTTCTTTCATTAATCCTTCAGCAACTGTTTTGCTATATACATTTACCTTTTAAGAGGAGGAAT”: 0.478; “CGACATGTCCCGCTTCTTTCATTAATCCTTGAGCAACTGTTTTGCTATATACATTTACCTTTTAAGAGGAGGAAT”: 0.57; “CGACATGTCCCGCTTCTTTCATTAATCCTTTAAAAAGTGTTTTGCTATATACATTTACCTTTTAAGAGGAGGAAT”: 0.182.
Consider “CGACATGTCCCGCTTCTTTCATTAATCCTTTAACAACTGTTTTGCTATATACATTTACCTTTTAAGAGGAGGAAT”, for which the “cleaved RNA product abundance” value was 0.154.
In the case of “CGACATGTCCCGCTTCTTTCATTAATCCTTTACCAACTGTTTTGCTATATACATTTACCTTTTAAGAGGAGGAAT”, the “cleaved RNA product abundance” value came to 0.125.
For “CGACATGTCCCGCTTCTTTCATTAATCCTTTAGAAACTGTTTTGCTATATACATTTACCTTTTAAGAGGAGGAAT” the value was 0.18.
On to “CGACATGTCCCGCTTCTTTCATTAATCCTTTAGCAAATGTTTTGCTATATACATTTACCTTTTAAGAGGAGGAAT”, for which the “cleaved RNA product abundance” value is 0.608.
Next, “CGACATGTCCCGCTTCTTTCATTAATCCTTTAGCAACAGTTTTGCTATATACATTTACCTTTTAAGAGGAGGAAT”: 0.115; “CGACATGTCCCGCTTCTTTCATTAATCCTTTAGCAACGGTTTTGCTATATACATTTACCTTTTAAGAGGAGGAAT”: 0.7; “CGACATGTCCCGCTTCTTTCATTAATCCTTTAGCAACTATTTTGCTATATACATTTACCTTTTAAGAGGAGGAAT”: 0.828.
For “CGACATGTCCCGCTTCTTTCATTAATCCTTTAGCAACTCTTTTGCTATATACATTTACCTTTTAAGAGGAGGAAT” the value was 1.2; for “CGACATGTCCCGCTTCTTTCATTAATCCTTTAGCAACTGATTTGCTATATACATTTACCTTTTAAGAGGAGGAAT”, 0.509; for “CGACATGTCCCGCTTCTTTCATTAATCCTTTAGCAACTGCTTTGCTATATACATTTACCTTTTAAGAGGAGGAAT”, 0.292.
Next, “CGACATGTCCCGCTTCTTTCATTAATCCTTTAGCAACTGGTTTGCTATATACATTTACCTTTTAAGAGGAGGAAT”: 0.306.
In the case of “CGACATGTCCCGCTTCTTTCATTAATCCTTTAGCAACTGTATTGCTATATACATTTACCTTTTAAGAGGAGGAAT”, the “cleaved RNA product abundance” value turned out to be 0.83.
Next, “CGACATGTCCCGCTTCTTTCATTAATCCTTTAGCAACTGTCTTGCTATATACATTTACCTTTTAAGAGGAGGAAT”: 0.661; “CGACATGTCCCGCTTCTTTCATTAATCCTTTAGCAACTGTTATGCTATATACATTTACCTTTTAAGAGGAGGAAT”: 0.471.
